In publication PMC4226571, “The E6AP Binding Pocket of the HPV16 E6 Oncoprotein Provides a Docking Site for a Small Inhibitory Peptide Unrelated to E6AP, Indicating Druggability of E6” (PLoS ONE, 2014):

B1: wildtype HPV31 E6 fused to the VP16 transcriptional activation domain [human papillomavirus type 31] / pep11** fused to the GAL4 DNA binding domain (parent complex)
chain 1: MFKNPAERPRKLHELSSALEIPYDELRLNCVYCKGQLTETEVLDFAFTDLTIVYRDDTPHGVCTKCLRFYSKVSEFRWYRYSVYGTTLEKLTNKGICDLLIRCITCQRPLCPEEKQRHLDKKKRFHNIGGRWTGRCIACWRRPRTETQV
chain 2: KEKEEYNSNCSCIACIGLI

Variants of: B1
Assay: mammalian two-hybrid; E6 constructs contain an additional flag-tag between E6 and the VP16-AD; RLA relative to pep11**-GAL4-BD + empty pACT set at 1.0; read off a plot
In the case of chain 1 MFKNPAERPRKLHELSSALEIPYDELRLNCVYCKGQLTETEVLDFAFTDLTIVYRDDTPHGVCTKCLRFYSKVSEFRAYRYSVYGTTLEKLTNKGICDLLIRCITCQRPLCPEEKQRHLDKKKRFHNIGGRWTGRCIACWRRPRTETQV [chain 1 W78A], the response is reported as roughly 1.2 RLA. For chain 1 MFKNPAERPRKLHELSSALEIPYDELRLNCVYCKGQLTETEVLDFAFTDLTIVYRDDTPHGVCTKCLRFYSKVSEFRHYRYSVYGTTLEKLTNKGICDLLIRCITCQRPLCPEEKQRHLDKKKRFHNIGGRWTGRCIACWRRPRTETQV [chain 1 W78H], the response was roughly 39 RLA.
